# Data: paper PMC7401805, “Tissue specific requirement of Drosophila Rcd4 for centriole duplication and ciliogenesis” (The Journal of Cell Biology, 2020)
# T1: MBP-tagged Ana3-C1 fragment (amino acids 1195-1977) (Drosophila melanogaster, UniProt A1Z8X3 1195-1977)
# T1 construct: Vector pKM596; also called MBP::Ana3 C1; Ana3-C terminal 1; source: E. coli Rosetta BL21(DE3), purified; not shown: MBP, N-terminal, kept
# T1 sequence (looked up): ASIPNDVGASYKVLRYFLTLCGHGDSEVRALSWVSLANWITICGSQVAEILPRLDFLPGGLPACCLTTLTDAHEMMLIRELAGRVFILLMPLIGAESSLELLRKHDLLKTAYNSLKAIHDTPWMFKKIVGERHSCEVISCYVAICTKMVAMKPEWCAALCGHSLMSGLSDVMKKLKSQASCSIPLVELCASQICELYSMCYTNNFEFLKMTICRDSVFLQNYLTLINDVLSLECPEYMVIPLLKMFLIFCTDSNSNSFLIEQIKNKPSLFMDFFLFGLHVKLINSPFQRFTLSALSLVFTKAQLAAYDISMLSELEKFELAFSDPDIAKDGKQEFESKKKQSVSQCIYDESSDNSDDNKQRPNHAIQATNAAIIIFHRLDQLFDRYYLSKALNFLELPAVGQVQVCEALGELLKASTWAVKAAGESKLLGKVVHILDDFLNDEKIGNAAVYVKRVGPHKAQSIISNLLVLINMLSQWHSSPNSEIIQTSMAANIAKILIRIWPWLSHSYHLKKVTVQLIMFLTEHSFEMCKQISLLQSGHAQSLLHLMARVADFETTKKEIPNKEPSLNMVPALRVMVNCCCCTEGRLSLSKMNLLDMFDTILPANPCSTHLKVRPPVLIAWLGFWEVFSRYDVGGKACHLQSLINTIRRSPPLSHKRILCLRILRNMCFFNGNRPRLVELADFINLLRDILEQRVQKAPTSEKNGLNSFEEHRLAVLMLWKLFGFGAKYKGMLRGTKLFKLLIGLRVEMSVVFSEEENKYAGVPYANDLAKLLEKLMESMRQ
# Assays:
# [1] = biological target: T1, MBP-tagged Ana3-C1 fragment (amino …); experiment: pull-down; GST-Rcd4 held on glutathione-sepharose 4B beads, MBP-tagged Ana3 fragment added, 1 h at 4°C; 20 mM Tris pH 7.5, 200 mM NaCl, 1 mM DTT, 10% glycerol; SDS-PAGE (Coomassie) and anti-MBP Western blot; conditions: both partners purified
# [2] = biological target: T2, GST-tagged full-length Ana3 (Drosophila melanogaster, UniProt A1Z8X3 1-1977); experiment: pull-down; full-length GST-Ana3 purified from S. cerevisiae incubated with MBP-Rcd4 purified from E. coli; GST::Ana3 purified, SDS-PAGE (Coomassie) and Western blot for MBP::Rcd4; conditions: both partners purified
# T2 construct: Ana3, Drosophila melanogaster; also called GST::Ana3; GST-Ana3; source: S. cerevisiae (plasmid pMG1): coexpressed with 6xHis-Rcd4, in crude extract; also expressed alone and purified on glutathione beads
Binder,binding result [1],binding result [2]
"GST-tagged Rcd4 (natural protein, Drosophila melanogaster, UniProt Q9VLM6 1-199, looked up, Rcd4, Drosophila melanogaster; 199 amino acid protein; also called GST::Rcd4; GST-Rcd4; source: E. coli Rosetta BL21(DE3), purified on glutathione-sepharose 4B beads; not shown: GST, N-terminal, kept) MPHKRRNRVHANQRNFTARRVSVAKLSSAPPNVLVESCNGSHADNSSPDSPKAKEGAMTNGKNPEIKLAVPKCNTTVRKQNEAHIISNIKLDMNLNKDSNFIAPQITKKMNFAPNRVVFGVLVPLNVNDSVLVPHNRKPDALKHTSKESESCKAISEPQLADYAEKVDPMIMAVKEPVLHLDWEPGPFDFFGAYRRTYN",binds,–
"MBP-tagged Rcd4 (natural protein, Drosophila melanogaster, UniProt Q9VLM6 1-199, looked up, Rcd4, Drosophila melanogaster; 199 amino acid protein; also called MBP::Rcd4; MBP-Rcd4; source: E. coli Rosetta BL21(DE3), purified; not shown: MBP, N-terminal, kept) MPHKRRNRVHANQRNFTARRVSVAKLSSAPPNVLVESCNGSHADNSSPDSPKAKEGAMTNGKNPEIKLAVPKCNTTVRKQNEAHIISNIKLDMNLNKDSNFIAPQITKKMNFAPNRVVFGVLVPLNVNDSVLVPHNRKPDALKHTSKESESCKAISEPQLADYAEKVDPMIMAVKEPVLHLDWEPGPFDFFGAYRRTYN",–,binds
